Changes are numbered by the printed parent chain. One block for each binder: values may come before it.
Columns and labels:
[1] = molecular target: T1, Cynomolgus TNFR2-His (Sino 90102-C08H) (cynomolgus monkey, UniProt A0A2K5VET2 132-366); experiment: ELISA, plate coated with Cynomolgus TNFR2-His, detection with anti-human IgG Fc-HRP [panel C]
T1 construct: Bought protein; also called cynomolgus monkey TNFR2; recombinant cynomolgus monkey TNFR2 protein; not shown: His tag
T1 sequence: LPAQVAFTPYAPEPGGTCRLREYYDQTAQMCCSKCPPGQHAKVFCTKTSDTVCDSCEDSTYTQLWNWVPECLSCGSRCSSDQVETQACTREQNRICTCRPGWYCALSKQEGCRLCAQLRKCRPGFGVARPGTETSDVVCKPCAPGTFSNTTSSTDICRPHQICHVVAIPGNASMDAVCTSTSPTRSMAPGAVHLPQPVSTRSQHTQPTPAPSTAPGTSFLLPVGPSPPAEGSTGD
Method: (§1) The test humanized antibody against TNFR2 (as described in Example 1, the antibody was comprised of variable regions linked to IgG-Fc; the WT chimeric antibody also adopted the IgG-Fc structure) was subjected to 3.33-fold gradient dilution, loaded with 100 μl/well, and incubated with shaking at room temperature for 1.5 hours. The plate was washed, and then a working solution of murine anti-human IgG Fc-HRP (diluted at 1:10000) was added, loaded with 100 μl/well, and incubated with shaking at room temperature for 1.0 hour. The plate was washed again, and then the substrate TMB of HRP was added to develop colour. A stop solution was added to stop the reaction, and then a microplate reader (MD 13) was used to read the absorbance value. The binding curve of an antibody was drawn with antibody concentration as the abscissa and corresponding OD value as the ordinate, and fitted with four parameters (GraphPad Prism9) to calculate the EC50 value. The smaller the EC50 value, the stronger the binding ability of an antibody to human/cynomolgus monkey TNFR2. The binding effect of a humanized antibody was normalized to its corresponding human-murine chimeric antibody WT (see SEQ ID NOs: 38-43 for the sequence). The higher the percentage value, the better the binding effect of the humanized antibody. […]

[2] = molecular target: T2, human TNFR2 on the surface of CHO-TNFR2 cells (human, UniProt P20333 23-461); experiment: flow cytometry competition: antibody titrated on CHO-TNFR2 cells, then human TNFα-biotin, detection with PE-streptavidin [panel A]
T2 construct: whole, on cells
T2 sequence (looked up): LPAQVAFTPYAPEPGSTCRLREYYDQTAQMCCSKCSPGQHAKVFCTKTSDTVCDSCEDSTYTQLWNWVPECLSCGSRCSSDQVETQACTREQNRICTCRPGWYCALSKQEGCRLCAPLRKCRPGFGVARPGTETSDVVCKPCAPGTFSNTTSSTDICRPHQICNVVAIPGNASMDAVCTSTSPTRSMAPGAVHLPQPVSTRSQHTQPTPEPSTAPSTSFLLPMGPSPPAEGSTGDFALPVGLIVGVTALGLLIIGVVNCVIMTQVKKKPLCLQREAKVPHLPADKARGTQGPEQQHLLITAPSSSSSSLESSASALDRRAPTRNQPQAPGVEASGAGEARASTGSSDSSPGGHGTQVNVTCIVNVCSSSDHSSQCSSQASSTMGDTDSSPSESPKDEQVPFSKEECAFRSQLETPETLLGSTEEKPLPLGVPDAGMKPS
Method: CHO stable cells highly expressing human TNFR2 were used for the experiment (the same as CHO-TNFR2 in Example 4). The CHO-TNFR2 cells were digested, washed twice with DPBS, then stained with Live/Dead (L/D) (20 minutes at room temperature), and plated at a density of 1×10⁵ cells/50 μl/well. A test anti-TNFR2 antibody was diluted to 6 μg/ml with a staining buffer as the starting concentration: the antibody was subjected to 3.33-fold gradient dilution, with a total of 7 concentration points. The diluted antibody was added to the plated cells at 50 μl/well, and the mixture was mixed well by gentle pipetting, and incubated at 4° C. for 30 minutes. Then the diluted 100 ng/ml of human TNFα-biotin was added at 100 μl/well, and the mixture was mixed well by gentle pipetting, and then incubated at 4° C. for 30 minutes. The mixture was washed twice with a staining buffer, and then 0.12 μg/ml PE-streptavidin (BioLegend, Cat #405204) was added at 100 μl/well; the resulting mixture was incubated at 4° C. for 30 minutes. The mixture was washed twice with a staining buffer, and then 150 μl of staining buffer was added to resuspend the cells; signals were detected by a flow cytometer (Thermo Attune NxT). […]

[3] = molecular target: T3, Human TNFR2-His (Sino 10417-H08H) (human, UniProt P20333 23-257); experiment: ELISA, plate coated with Human TNFR2-His, detection with anti-human IgG Fc-HRP [panel A]
T3 construct: Bought protein; also called recombinant human TNFR2 protein; not shown: His tag
T3 sequence (looked up): T1 sequence with G16S, P36S, Q117P, H164N, A210E, G216S, V223M
Method: as §1

- EC50 (read off the curve) [1]: ~10 ng/mL
B1: 224-WT (antibody, V domains shown)
VH: EVQLQESGPEIVKPGASVKLSCTASGFNNKDIYMHWVKQRPEQGLEWIGRIDPATGNTKHDPKFQDKATLSSDTSSNTAYLQFSSLTSEDTAVYYCAHSPYGDFGAMDYWGQGTTVTVSS
VL: DIQMTQSPAIMSASLGERVTMTCTASSSVSSNYLHWYQQKPGSSPKLWIYSTSNLPSGVPARFSGSGSGTSYSLTISSMEAEDAATYYCHQYHRSPWTFGGGTKLEIK
notes: Human-murine chimeric wild-type molecule; also called human-murine chimeric antibody WT of #224

- IC50 (read off the curve) [2]: ~90 ng/mL
- EC50 (read off the curve) [3]: ~10 ng/mL
B2: 001-WT (antibody, V domains shown)
VH: EVQLQESGGGLVQPGGSLNLSCAASGFAFSTYDLSWVRQTPEKRLEWVAYINNGGISTYYSDTVKGRFTISRDNAKNTLYLQMSSLKSEDTAMYYCVRGPFYGSANYFDYWGQGTTVTVSS
VL: EIVMTQSPASLSLSVGETVTITCRTSESIYSNLPWYQQKQGKSPQLLVYDATKLAEGVPSRFSGSESGTQYSLKINSLQSEDFGTYYCQHFWVTPWTFGGGTKLEIK
notes: Human-murine chimeric wild-type molecule; also called human-murine chimeric antibody WT of #001
